Positions count from the first letter of the chain named. Names and notes keep the numbering of the source.

One may read the Kd as the free concentration of one partner at which half of the binding sites on the other are occupied at equilibrium, for simple one-to-one binding.

T1: PUF4 RNA-binding domain (Saccharomyces cerevisiae, UniProt P25339 537-888)
T1 sequence: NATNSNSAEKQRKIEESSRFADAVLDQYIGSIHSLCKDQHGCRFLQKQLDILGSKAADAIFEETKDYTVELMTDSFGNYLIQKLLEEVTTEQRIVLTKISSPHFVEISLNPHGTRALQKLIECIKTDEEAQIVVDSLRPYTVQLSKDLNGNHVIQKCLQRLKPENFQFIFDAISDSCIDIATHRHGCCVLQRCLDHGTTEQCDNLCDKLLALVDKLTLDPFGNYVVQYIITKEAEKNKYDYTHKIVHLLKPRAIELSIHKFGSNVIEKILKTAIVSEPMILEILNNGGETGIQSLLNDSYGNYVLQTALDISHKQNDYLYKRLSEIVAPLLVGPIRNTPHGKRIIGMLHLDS

B1: Ic_S1_P4E.1_K4.1_C4.1_H4.1_A4.1_[A6G]_F4.1_[A9C]_T4.1 (ssRNA)
RNA: UCUCUUUGUAUGUUCUCUCUU
B2: Ic_S4_P5E.1_K5.1_C5.1_H5.1_A5.1_[T5C]_[T6C]_[A7C]_F5.1_[T9A]_[A10G]_T5.1 (ssRNA)
RNA: UUUGACAACUGAUCGUUCUUUCUUGUACCCUAGUUCUUUCUCGAUCAGUUGUCUUU
B3: Ic_S4_P5E.1_K5.1_C5.1_H5.1_A5.1_[T6G]_[A7C]_F5.1_[T8G]_[T9C]_[A10T]_T5.1 (ssRNA)
RNA: B2 RNA with C28U, C29G, U31G, A32C, G33U
B4: Ic_S4_P5E.1_K5.1_C5.1_H5.1_A5.1_[A7T]_F5.1_[T8C]_[T9G]_[A10T]_T5.1 (ssRNA)
RNA: B2 RNA with C28U, C29U, C30U, U31C, A32G, G33U
B5: Ic_S4_P5E.1_K5.1_C5.1_H5.1_A5.1_[T5C]_[T6A]_[A7C]_F5.1_[T8A]_[T9A]_T5.1 (ssRNA)
RNA: B2 RNA with C29A, U31A, G33A
B6: Ic_S4_P5E.1_K5.1_C5.1_H5.1_A5.1_[A7T]_F5.1_[T8G]_[T9C]_[A10G]_T5.1 (ssRNA)
RNA: B2 RNA with C28U, C29U, C30U, U31G, A32C
B7: Ic_S4_P5E.1_K5.1_C5.1_H5.1_A5.1_[T5C]_[T6C]_F5.1_[T9A]_[A10C]_T5.1 (ssRNA)
RNA: B2 RNA with C30A, G33C
B8: Ic_S4_P5E.1_K5.1_C5.1_H5.1_A5.1_[T5G]_[A7T]_F5.1_[T8A]_[A10T]_T5.1 (ssRNA)
RNA: B2 RNA with C28G, C29U, C30U, U31A, A32U, G33U
B9: Ic_S4_P5E.1_K5.1_C5.1_H5.1_A5.1_[T5C]_[T6C]_F5.1_[T8G]_[A10G]_T5.1 (ssRNA)
RNA: B2 RNA with C30A, U31G, A32U
B10: Ic_S4_P5E.1_K5.1_C5.1_H5.1_A5.1_[T5C]_[T6G]_[A7T]_F5.1_[T8C]_[T9A]_[A10T]_T5.1 (ssRNA)
RNA: B2 RNA with C29G, C30U, U31C, G33U
B11: Ic_S4_P5E.1_K5.1_C5.1_H5.1_A5.1_[T5A]_[A7T]_F5.1_[T8G]_[T9C]_[A10C]_T5.1 (ssRNA)
RNA: B2 RNA with C28A, C29U, C30U, U31G, A32C, G33C
B12: Ic_S4_P5E.1_K5.1_C5.1_H5.1_A5.1_[T5A]_[T6A]_[A7C]_F5.1_[T9A]_T5.1 (ssRNA)
RNA: B2 RNA with C28A, C29A, G33A
B13: Ic_S4_P5E.1_K5.1_C5.1_H5.1_A5.1_[T5C]_[T6G]_[A7T]_F5.1_[T8A]_[T9A]_[A10T]_T5.1 (ssRNA)
RNA: B2 RNA with C29G, C30U, U31A, G33U
B14: Ic_S4_P5E.1_K5.1_C5.1_H5.1_A5.1_[T6A]_[A7C]_F5.1_[T8G]_[T9G]_[A10T]_T5.1 (ssRNA)
RNA: B2 RNA with C28U, C29A, U31G, A32G, G33U
B15: Ic_S4_P5E.1_K5.1_C5.1_H5.1_A5.1_[T5C]_[T6C]_F5.1_[T8G]_[T9C]_[A10T]_T5.1 (ssRNA)
RNA: B2 RNA with C30A, U31G, A32C, G33U
B16: Ic_S4_P5E.1_K5.1_C5.1_H5.1_A5.1_[T5C]_[A7T]_F5.1_[T8C]_[T9A]_[A10T]_T5.1 (ssRNA)
RNA: B2 RNA with C29U, C30U, U31C, G33U
B17: Ic_S4_P5E.1_K5.1_C5.1_H5.1_A5.1_[T5C]_[T6G]_[A7T]_F5.1_[T9A]_T5.1 (ssRNA)
RNA: B2 RNA with C29G, C30U, G33A
B18: Ic_S4_P5E.1_K5.1_C5.1_H5.1_A5.1_[T5A]_[A7T]_F5.1_[T9C]_[A10T]_T5.1 (ssRNA)
RNA: B2 RNA with C28A, C29U, C30U, A32C, G33U
B19: Ic_S4_P5E.1_K5.1_C5.1_H5.1_A5.1_[T6C]_[A7T]_F5.1_[T8A]_[A10C]_T5.1 (ssRNA)
RNA: B2 RNA with C28U, C30U, U31A, A32U, G33C
B20: Ic_S4_P5E.1_K5.1_C5.1_H5.1_A5.1_[T5C]_[T6G]_[A7T]_F5.1_[T8G]_[T9G]_[A10T]_T5.1 (ssRNA)
RNA: B2 RNA with C29G, C30U, U31G, A32G, G33U
B21: Ic_S4_P5E.1_K5.1_C5.1_H5.1_A5.1_[A7T]_F5.1_[T8C]_[T9A]_T5.1 (ssRNA)
RNA: B2 RNA with C28U, C29U, C30U, U31C, G33A
B22: Ic_S4_P5E.1_K5.1_C5.1_H5.1_A5.1_[T5A]_[T6C]_[A7C]_F5.1_[T8C]_[T9A]_[A10T]_T5.1 (ssRNA)
RNA: B2 RNA with C28A, U31C, G33U
B23: Ic_S1_P4E.1_K4.1_C4.1_H4.1_A4.1_[A6T]_F4.1_[A9G]_T4.1 (ssRNA)
RNA: UCUCUUUGUAUUUUGUCUCUU

The target in the data set is T1, PUF4 RNA-binding domain. The experiment in a line: Mg; RNA-MaP; 20 mM Na-HEPES pH 7.4, 30 mM KOAc, 0.75 mM MgCl2, 0.1% Tween-20, 5% glycerol, 0.1 mg/mL BSA, 2 mM DTT; 25 C; 0.0125-409.6 nM protein. Particulars: tags: N-His6-TEV cleaved; C-SNAP kept, Cy3B-labelled; label: tethered on chip by stalled RNA polymerase.
B1 had a Kd of 54.6 nM. For B2, the affinity, expressed as Kd, was 6.26 nM.

In the case of B3, the Kd turned out to be 542 nM.

B4 registered a Kd of 62.1 nM. Regarding B5, the Kd came to 15.5 nM. In the case of B6, the affinity, expressed as Kd, was 196 nM. In turn, B7 yielded a Kd of 2.7 nM. With B8, binding was put at a Kd of 85.3 nM. In turn, B9 had a Kd of 124 nM.

In turn, B10 displayed a Kd of 98.8 nM.

For B11, the Kd turned out to be 400 nM. In the case of B12 it was 4.37 nM; in that of B13, 67.6 nM; in that of B14, 510 nM. Consider B15, for which the Kd is 650 nM. Regarding B16, the Kd was 103 nM. In the case of B17 it was 4.22 nM; in that of B18, 32.8 nM. Next, B19: 13.6 nM. Next, B20: 195 nM; B21: 452 nM; B22: 531 nM. The molecule B23 returned a Kd of 15.2 nM.

The record behind these values is article PMC9352680, “A comprehensive thermodynamic model for RNA binding by the Saccharomyces cerevisiae Pumilio protein PUF4”.
